The source of these data is patent US20240002495A1 (MITSUBISHI TANABE PHARMA, published 2024).

In this assay the target is T1, recombinant human ST2 Fc chimera (ALX-201-367-C050, Enzo Life Science) (human, UniProt Q01638 19-328).
T1 construct: bought; also called human IL-33 receptor protein; human IL-33 receptor (ST2)
T1 sequence (looked up): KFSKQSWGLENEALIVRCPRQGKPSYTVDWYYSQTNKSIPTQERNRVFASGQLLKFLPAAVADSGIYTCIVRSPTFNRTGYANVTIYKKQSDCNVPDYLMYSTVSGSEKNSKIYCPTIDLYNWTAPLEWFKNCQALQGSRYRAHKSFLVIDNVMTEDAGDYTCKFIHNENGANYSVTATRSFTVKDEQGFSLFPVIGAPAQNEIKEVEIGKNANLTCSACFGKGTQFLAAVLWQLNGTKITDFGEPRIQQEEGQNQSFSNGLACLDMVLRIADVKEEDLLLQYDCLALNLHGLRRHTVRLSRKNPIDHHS
The assay is described as follows: SPR (ProteOn), hIL-33 on chip, ST2 Fc chimera as analyte. The text has this: Each peptide was N-terminally biotinylated, and was immobilized as ligand onto a NeutrAvidin sensor chip of a surface plasmon resonance (SPR) system (ProteOn XPR36, available from Bio-Rad Laboratories, Inc.). […] The resulting protein (hIL-33) as a ligand was immobilized onto the SPR sensor chip. Each test antibody, the human IL-33 receptor protein (recombinant human ST2 Fc chimera) (ALX-201-367-C050, available from Enzo Life Science, Inc.), or buffer (0.05% Tween20/PBS) alone was then loaded as an analyte onto the sensor chip containing the ligand immobilized thereon (antibody concentration: […]; flow rate: 100 μl/min), to allow them to bind to the ligand. After washing, the amount of analyte (amount of antibody) bound to the ligand on the sensor chip was measured as RU value.

B1: mature human IL-33 (residues 112 to 270) N-terminally linked with the Avitag sequence, biotinylated (ligand, not shown: small tags and cut ends)
chain: SITGISPITEYLASLSTYNDQSITFALEDESYEIYVEDLKKDEKKDKVLLSYYESQHPSNESGDGVDGKMLMVTLSPTKDFWLHANNKEHSVELHKCEKPLPDQAFFVLHNMHSNCVSFECKTDPGVFIGVKDNHLALIKVDSSENLCTENILFKLSET
modifications: biotin on the AviTag sequence (biotin ligase reaction)
notes: also called hIL-33
As to B1, the binding result is recorded as “binds”.
